Results on eight molecules are retold here after US20240174744A1 (SCIRHOM, published 2024).

B1: antibody 16 (antibody, V domains shown)
VH: QVTLKESGPGILQPSQTLSLTCSFSGFSLSTFALGVGWIRQPSGRGLEWLAHIWWDDDKYYNPALKSRLTISKDTSKNHVFLKIANVDTADTATYYCARITTYYYGMDYWGQGTSVTVSS
VL: DIVLSQSPATLSVTPGDSVSLFCRASQSIGNHLHWYQQESHASPRLLIKYASQSISGIPSRFSGSGSGTDFTLSINSVETEDFGMYFCQQSYNWPLTFGAGTKLELK
notes: Mouse IgG, kappa light chain; also called clone #16; m16
B2: antibody 3 (antibody, V domains shown)
VH: QVTLKESGPGILQPSQTLSLTCSFSGFSLTTFAMGIGWVRQPSGKGLEWLAHIWWDGEKYNNPVLKSRLTISKDTSKNQVFLRIANVDTPDTATYYCARISSIYYIIDNWGQGTSVTVSS
VL: DIVLTQSPATLSVTPGHSVSLSCRASQSISNNLHWYQKKSHESPRLLIKYVSQSISGIPSRFSGSGSGTDFTLSINSVETEDFGMYFCQQSYNWPLTFGAGTKLELK
notes: Mouse IgG, kappa light chain; also called clone #3; purified antibody 3
B3: antibody 34 (antibody, V domains shown)
VH: QVTLKESGPGILQPSQTLSLTCSFSGFSLSTFSLGVGWIRQSSGKGLEWLAHIWWDDEKYYNPALKSRLTISKDTSKNQVFLKIANVDAADTATYYCARAYYSKSYYALDYWGQGTSVTVSS
VL: DIQMTQSPSSLSASLGERVSLTCRASQEISGYLSWLQQKPDGTIKRLIYAASTLDSGVPKRFSGSRSGSDYSLAISSLESEDFADYYCLQYANFPFTFGSGTKLEIK
notes: Mouse IgG, kappa light chain; also called clone #34; m34
B4: antibody 43 (antibody, V domains shown)
VH: QVALKESGPGILQPSQTLSLTCSFSGFSLSTFGMGVGWIRQSSGKGLEWLANIWWDDDKYYNPALKSRLTISKDASKNQAFLKIANVDTADTATYYCARIGNYGSNYWYFDVWGTGTTVTVSS
VL: QIVLTQSPAIMSASPGERVTMTCSANSRISYMYWYQQKPGSSPRLLIYDTSNLASGVPVRFSGSGSGTSYSLTISRMEAEDAATYNCQQWSSYPLTFGAGTKLELK
notes: Mouse IgG, kappa light chain; also called clone #43
B5: antibody 44 (antibody, V domains shown)
VH: QVTLKESGPGILQPSQTLSLTCSFSGFSLSTFGMGVGWIRQPSEKGLEWLAHIWWDDDKYYNPALKSRLTISKDTSKNQIFLKITNVDTAETATYYCSRIGNYGSNYWYFDVWGTGTTVTVSS
VL: QIVLTQSPAVMSASPGEKVTMTCTASSSVYYMYWYQQTPGSSPRLLIYDTSNLASGVPVRFSGSGSGTSYSLTISRMEAEDAATYYCQQWNTYPLTFGAGTKLELK
notes: Mouse IgG, kappa light chain; also called clone #44; m44
B6: antibody 42 (antibody, V domains shown)
VH: QVTLKESGPGILQPSQTLSLTCSLSGFSLSTFGRGVGWIRQPSGKGLEWLAHIWWDDEKYYNPALKSRLTISKDTSKNQVFLRIANVDTADTATYYCARIQNYGSNYWYFDVWGTGTTVTVSS
VL: LIVLTQSPAIMSASPGEKVTMTCGATSRISYMFWYQQKPGSSPRVLIYDTSNLASGVPVRFSGSGSGTSYSLTISRVEAEDVATYYCQQWNSYPLTFGAGTKLELK
notes: Mouse IgG, kappa light chain; also called clone #42; m42
B7: antibody 5 (antibody, V domains shown)
VH: QVTLKESGPGILQPSQTLSLTCSFSGFSLSTFGMGVGWIRQPSGKGLEWLAHIWWDDEKYYNSALKSRLTISKATSKNQAFLKIANVDTADTATYYCARISNYGSNYWYFNVWGTGTTVTVSS
VL: QVVLTQSPALMSASPGEKVTMTCSAGSSVSCMYWYQQKPGSSPRVLIYDTSNLASGVPARFTGSGSGTSYSLTISRMEAEDAASYYCQQWNSYPLTFGAGTKLELK
notes: Mouse IgG, kappa light chain; also called clone #5; purified antibody 5
B8: antibody 22 (antibody, V domains shown)
VH: QVTLKESGPGILQPSQTLSLTCSFSGFSLSTFGMGVGWIRQPSGKGLEWLAHIWWDDEKYYNSALKSRLTISKATSKNQVFLKIANVDTADTATYYCARISNYGSNYWYFNVWGTGTTVTVSS
VL: QVVLTQSPALMSASPGEKVTMTCSAGSSVSYMYWYQQKPGSSPRVLIYDTSNLASGVPARFTGSGSGTSYSLTISRMEAEDAATYYCQQWNSYPLTFGAGTKLELK
notes: Mouse IgG, kappa light chain; also called clone #22; m22

The experiment addresses T1, hiR2-FL-P533-T7 (human iRhom2 full length with deletion of P533, 3 x T7 tag) (human, UniProt Q6PJF5 1-856).
T1 construct: The change is a deletion of one residue, not a substitution
T1 sequence: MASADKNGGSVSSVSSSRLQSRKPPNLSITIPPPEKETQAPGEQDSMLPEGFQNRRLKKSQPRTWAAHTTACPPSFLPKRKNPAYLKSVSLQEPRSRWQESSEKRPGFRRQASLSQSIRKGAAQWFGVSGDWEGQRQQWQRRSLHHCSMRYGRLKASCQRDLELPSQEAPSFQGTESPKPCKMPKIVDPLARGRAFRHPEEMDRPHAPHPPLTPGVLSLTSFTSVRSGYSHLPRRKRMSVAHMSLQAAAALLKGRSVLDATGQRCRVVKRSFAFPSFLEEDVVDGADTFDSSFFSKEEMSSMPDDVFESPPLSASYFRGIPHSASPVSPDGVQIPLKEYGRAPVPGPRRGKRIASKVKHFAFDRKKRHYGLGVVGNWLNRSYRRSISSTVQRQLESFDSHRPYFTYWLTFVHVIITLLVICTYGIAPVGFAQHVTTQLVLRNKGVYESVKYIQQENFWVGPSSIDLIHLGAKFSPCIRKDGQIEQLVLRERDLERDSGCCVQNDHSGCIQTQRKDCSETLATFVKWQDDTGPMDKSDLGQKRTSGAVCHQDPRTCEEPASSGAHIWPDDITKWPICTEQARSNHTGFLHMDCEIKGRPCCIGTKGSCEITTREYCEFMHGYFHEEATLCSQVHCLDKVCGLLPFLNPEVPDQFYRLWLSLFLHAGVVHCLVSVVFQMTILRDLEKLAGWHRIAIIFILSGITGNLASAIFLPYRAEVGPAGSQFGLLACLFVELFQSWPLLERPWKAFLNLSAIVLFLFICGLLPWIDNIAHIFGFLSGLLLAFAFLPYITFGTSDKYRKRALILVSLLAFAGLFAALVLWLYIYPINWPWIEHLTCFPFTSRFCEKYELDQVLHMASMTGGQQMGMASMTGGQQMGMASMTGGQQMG
The experiment can be described thus: FACS on cells of the row P533-, vs human iR2 wild type = 100%. The text has this: In brief, immortalized MEF-DKO-hiR2-FL-WT-T7 cells, MEF-DKO-miR2-FL-WT-T7 cells and MEF-DKO-hiR2-FL-R441K-T7, MEF-DKO-hiR2-FL-K443R-T7, MEF-DKO-hiR2-FL-V459I-T7, MEF-DKO-hiR2-FL-G481Q-T7, MEF-DKO-hiR2-FL-L488R-T7, MEF-DKO-hiR2-FL-L493I-T7, MEF-DKO-hiR2-FL-D496T-T7, MEF-DKO-hiR2-FL-H505R-T7, MEF-DKO-hiR2-FL-Q512L-T7, MEF-DKO-hiR2-FL-R513K-T7, MEF-DKO-hiR2-FL-D528N-T7, MEF-DKO-hiR2-FL-P533-T7, MEF-DKO-hiR2-FL-M534S-T7, MEF-DKO-hiR2-FL-G540S-T7, MEF-DKO-hiR2-FL-R543Q-T7, MEF-DKO-hiR2-FL-T544P-T7, MEF-DKO-hiR2-FL-G546A-T7, MEF-DKO-hiR2-FL-A547V-T7, MEF-DKO-hiR2-FL-R582Q-T7, MEF-DKO-hiR2-FL-F588L-T7, MEF-DKO-hiR2-FL-M591I-T7, MEF-DKO-hiR2-FL-E594K-T7, MEF-DKO-hiR2-FL-E626D-T7, MEF-DKO-hiR2-FL-L657I-T7, and MEF-DKO-hiR2-FL-H835Y-T7 cells were harvested with 10 mM EDTA in PBS, washed and resuspended in FACS buffer (PBS, 3% FBS, 0.05% sodium azide), and seeded in Nunc U-bottom 96-well plates (Thermo Fisher Scientific, USA) at approximately 3×10⁵ cells per well. To pellet cells and remove supernatants, the plates were centrifuged at 1,500 rpm and 4° C. for 3 minutes. For primary staining, cells were resuspended in 100 μl per well of either FACS buffer alone (controls) or the purified antibodies 3, 5, 16, 22, 34, 42, 43, 44, 48, and 50 of the present disclosure at 3 μg/ml FACS buffer and incubated on ice for 1 hour. Afterwards, plates were centrifuged at 1,500 rpm and 4° C. for 3 minutes and washed twice with 200 μl per well of FACS buffer. For secondary staining, cells were spun down and resuspended in 100 μl per well of PE-conjugated goat anti-mouse IgG F(ab′)2 detection fragment (Dianova, Germany) diluted 1:100 in FACS buffer. Protected from light, the cell suspensions were incubated on ice for 1 hour. Plates were then centrifuged at 1,500 rpm and 4° C. for 3 minutes and washed three times with 200 μl per well of FACS buffer. Finally, cells were resuspended in 150 μl per well of FACS buffer and analyzed using a BD Accuri™ C6 Plus flow cytometer (Becton Dickinson, Germany).
Regarding B1, the “grade of loss of binding vs wild type” value was 3 grade (3 => 95% loss of binding vs wild type). The figure for B2 is 3 grade (3 => 95% loss of binding vs wild type).

For B3, the “grade of loss of binding vs wild type” value was 3 grade (3 => 95% loss of binding vs wild type). As for B4, the “grade of loss of binding vs wild type” value was 3 grade (3 => 95% loss of binding vs wild type). The figure for B5 is 3 grade (3 => 95% loss of binding vs wild type); for B6 it is 3 grade (3 => 95% loss of binding vs wild type).

Take B7: the “grade of loss of binding vs wild type” value was 3 grade (3 => 95% loss of binding vs wild type). On to B8, for which the “grade of loss of binding vs wild type” value was 3 grade (3 => 95% loss of binding vs wild type).
